Results taken from patent US20260116920A1 (PEPTIDREAM, published 2026).
Starred links: 1 amine or outer side, 2 acyl side, 3 side chain; linkers in the order of their positions; H or OH if unused. Positions of bridges follow the written chain, without caps; N, C: chain ends. Non-standard residues stand in square brackets, D forms with d. Primed or numbered codes have the meaning given here. No end group written: not given here. *: point of attachment. E(PEG8Me) = (S)-30-amino-27-oxo-2,5,8,11,14,17,20,23-octaoxa-26-azahentriacontane-31-oic acid, COCCOCCOCCOCCOCCOCCOCCOCCNC(=O)CC[C@H](N[*:1])C(=O)[*:2]; Phe(4-OMe)(3) = (S)-2-amino-3-(4-methoxyphenyl)propanoic acid (source code F4OMe), COc1ccc(C[C@H](N[*:1])C(=O)[*:2])cc1; F4aao = (S)-2-amino-3-(4-(carboxymethoxy)phenyl)propanoic acid, O=C([C@H](Cc1ccc(OCC(=O)[*:3])cc1)N[*:1])[*:2]; Phe(4-OMe) = F4OMe = (S)-2-amino-3-(4-methoxyphenyl)propanoic acid, COc1ccc(C[C@H](N[*:1])C(=O)[*:2])cc1; Trp(1-CH2CO) = O=C([C@H](Cc1cn(CC(=O)[*:3])c2ccccc12)N[*:1])[*:2]; Phe(3-COOH) = N[C@@H](Cc1cccc(C(=O)O)c1)C(=O)O; Trp(7-aza) = N[C@@H](Cc1c[nH]c2ncccc12)C(=O)O; NH(CH2CH2O)8Me = COCCOCCOCCOCCOCCOCCOCCOCCN*; NMePhe(3-Cl) = CN[C@@H](Cc1cccc(Cl)c1)C(=O)O; 3Pal(6-NH2) = Nc1ccc(C[C@H](N)C(=O)O)cn1; NMe3Pal = CN[C@@H](Cc1cccnc1)C(=O)O; NMe4Pal = CN[C@@H](Cc1ccncc1)C(=O)O; NMeY = CN[C@@H](Cc1ccc(O)cc1)C(=O)O; 3Pal = N[C@@H](Cc1cccnc1)C(=O)O; 4Pal = N[C@@H](Cc1ccncc1)C(=O)O

biological target: T1, human transferrin receptor (hTfR) (human, UniProt P02786 89-760); assay: SPR; B = KD 1-100 nM
T1 construct: used as 0.5 uM hTfR dimer solution, immobilised on an NTA sensor chip (Ni capture plus EDC/NHS coupling); also called human TfR; TfR1
Experimental: NTA sensor chip (Global Life Sciences Technologies Japan K.K.) was inserted into BiacoreT200 (Global Life Sciences Technologies Japan K.K.), then the priming operation was performed three times by using running buffer containing: 10 mM HEPES pH 8.0 (Nacalai Tesque, Inc.), 150 mM NaCl (Nacalai Tesque, Inc.), 0.05% Tween 20 (Nacalai Tesque, Inc.), 0.1% BSA (SIGMA-ALDRICH) and 1.0% DMSO (FUJIFILM Wako Pure Chemical Corporation), and equilibrated at a flow rate of 30 μL/min. 350 mM EDTA solution was reacted at a flow rate of 10 μL/min for 60 seconds, 0.5 mM […] solution (Kishida Chemical Co., Ltd.) was reacted at a flow rate of 10 μL/min for 60 seconds, and then the NTA sensor chip was washed with 3 mM EDTA solution (Nacalai Tesque, Inc.) at a flow rate of 10 μL/min for 60 seconds. After mixing 50 μL each of 60 mM EDC solution (Global Life Science Technologies Japan K.K.) and 650 mM NHS solution (Global Life Science Technologies Japan K.K.), the reaction was carried out at a flow rate of 10 μL/min for 420 seconds. 150 μL of 0.5 μM hTfR dimer solution was prepared by dilution with running buffer and reacted at a flow rate of 10 μL/min for 300 seconds to immobilize hTfR on the NTA sensor chip. For the human transferrin receptor (hTfR), recombinant hTfR described in Example 2 of WO2018/124121 was used. After immobilization, capping was performed by reacting with 1.0 M ethanolamine solution (Global Life Sciences Technologies Japan K.K.) at a flow rate of 10 μL/min for 420 seconds. Peptide lysate prepared in DMSO solution to 10 mM was diluted with running buffer to be a final concentration of 10 μM peptide lysate, then peptide solutions of 100 nM, 50 nM, 25 nM, 10 nM, and 5 nM were prepared. Using the above samples, the kinetics of the peptide against hTfR was obtained by SPR measurement.
The kinetic evaluation model was single-cycle kinetics, and curve fitting was performed using Biacore T200 Evaluation Software Version 3.0 (Global Life Science Technologies Japan K.K.). The binding of the peptide to hTfR was evaluated by performing curve fitting on the obtained sensorgram by least squares method and obtaining the KD value.

T1 sequence (P02786 89-760 limits assumed): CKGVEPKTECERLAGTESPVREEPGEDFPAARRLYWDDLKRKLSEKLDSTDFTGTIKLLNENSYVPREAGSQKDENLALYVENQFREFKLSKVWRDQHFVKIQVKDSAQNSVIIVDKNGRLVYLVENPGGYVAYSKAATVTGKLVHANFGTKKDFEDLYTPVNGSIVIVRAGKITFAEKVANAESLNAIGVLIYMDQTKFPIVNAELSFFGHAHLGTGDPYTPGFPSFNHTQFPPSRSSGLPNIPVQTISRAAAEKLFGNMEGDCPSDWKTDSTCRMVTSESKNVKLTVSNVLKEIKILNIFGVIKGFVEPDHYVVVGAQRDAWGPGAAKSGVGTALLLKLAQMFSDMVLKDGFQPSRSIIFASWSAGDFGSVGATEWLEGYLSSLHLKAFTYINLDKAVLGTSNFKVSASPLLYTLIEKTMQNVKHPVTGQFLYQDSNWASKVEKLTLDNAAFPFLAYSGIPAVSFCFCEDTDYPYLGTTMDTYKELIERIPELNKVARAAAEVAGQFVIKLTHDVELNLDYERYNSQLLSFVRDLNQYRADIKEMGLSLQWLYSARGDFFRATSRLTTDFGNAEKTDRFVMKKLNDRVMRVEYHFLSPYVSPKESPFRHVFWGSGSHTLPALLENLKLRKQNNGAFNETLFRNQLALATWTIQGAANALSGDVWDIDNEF

KD [nM] | Binder
1 to 100 | Ac-AV[NMe4Pal]VWN[3Pal(6-NH2)][Phe(4-OMe)(3)]IIRRF[NMeY]C (thioether (positions not given here); not fully specified (C-terminus, bridges)) [894_0323]
1 to 100 | Ac-AV[NMePhe(3-Cl)]V[Trp(1-CH2CO)]NY[Phe(4-OMe)(3)]IIR[E(PEG8Me)][Phe(3-COOH)][NMeY]C (thioether (positions not given here); not fully specified (C-terminus, bridges)) [894_0344]
1 to 100 | Ac-AV[NMePhe(3-Cl)]V[Trp(1-CH2CO)]N[3Pal(6-NH2)][F4aao]IIRR[Phe(3-COOH)][NMeY]C (thioether (positions not given here); not fully specified (C-terminus, bridges)) [894_0349]
1 to 100 | Ac-AV[NMePhe(3-Cl)]V[Trp(1-CH2CO)]N[3Pal(6-NH2)][F4aao]IIRRF[NMeY]C (thioether (positions not given here); not fully specified (C-terminus, bridges)) [894_0337]
1 to 100 | Ac-AV[NMePhe(3-Cl)]VWNY[Phe(4-OMe)(3)]IIRR[4Pal][NMe3Pal]C (thioether (positions not given here); not fully specified (C-terminus, bridges)) [894_0325]
1 to 100 | Ac-AV[NMePhe(3-Cl)]V[Trp(1-CH2CO)]NY[Phe(4-OMe)(3)]IIR[E(PEG8Me)]F[NMeY]C (thioether (positions not given here); not fully specified (C-terminus, bridges)) [894_0334]
1 to 100 | {CH2CO}-AV[NMePhe(3-Cl)]VWN[3Pal(6-NH2)][F4aao]IIRR[4Pal][NMeY]C-NH2 (thioether N-15; also: linker PEG4c) [894_0369]
1 to 100 | Ac-AV[NMePhe(3-Cl)]V[Trp(7-aza)]NY[Phe(4-OMe)(3)]IIRR[4Pal][NMeY]C (thioether (positions not given here); not fully specified (C-terminus, bridges)) [894_0324]
1 to 100 | {CH2CO}-AV[NMePhe(3-Cl)]VWNY[Phe(4-OMe)]IIRE(NH(CH2CH2O)8Me)[Phe(3-COOH)][NMeY]C-NH2 (thioether N-15; also: linker PEG4c) [894_0365]
1 to 100 | {CH2CO}-AV[NMePhe(3-Cl)]VWNY[3Pal]IIRE(NH(CH2CH2O)8Me)[Phe(3-COOH)][NMeY]C-NH2 (thioether N-15; also: linker PEG4c) [894_0370]
1 to 100 | {CH2CO}-AV[NMePhe(3-Cl)]VWN[3Pal(6-NH2)][3Pal]IIR[E(PEG8Me)][Phe(3-COOH)]YC-NH2 (thioether N-15; not fully specified (residue 14); also: linker PEG4c, place not given here) [894_0374]
1 to 100 | Ac-AV[NMePhe(3-Cl)]V[Trp(1-CH2CO)]NY[3Pal]IIRR[Phe(3-COOH)][NMeY]C (thioether (positions not given here); not fully specified (C-terminus, bridges)) [894_0341]

The next lines start with the binder.

Binder | KD [nM]
Ac-AV[NMePhe(3-Cl)]V[Trp(1-CH2CO)]NY[F4aao]IIRE(NH(CH2CH2O)8Me)[4Pal][NMeY]C (thioether (positions not given here); not fully specified (C-terminus, bridges)) [894_0350] | 1 to 100
Ac-AV[NMePhe(3-Cl)]V[Trp(1-CH2CO)]N[3Pal(6-NH2)][3Pal]IIRR[Phe(3-COOH)][NMeY]C (thioether (positions not given here); not fully specified (C-terminus, bridges)) [894_0347] | 1 to 100
{CH2CO}-AV[NMePhe(3-Cl)]VWNY[F4aao]IIR[E(PEG8Me)][4Pal]YC-NH2 (thioether N-15; not fully specified (residue 14); also: linker PEG4c, place not given here) [894_0373] | 1 to 100
{CH2CO}-AV[NMePhe(3-Cl)]V[Trp(1-CH2CO)]NY[3Pal]IIRE(NH(CH2CH2O)8Me)[4Pal][NMeY]C-NH2 (thioether N-15; also: linker PEG4c) [894_0351] | 1 to 100
{CH2CO}-AV[NMePhe(3-Cl)]VWNY[F4aao]IIRE(NH(CH2CH2O)8Me)F[NMeY]C (thioether N-15; not fully specified (C-terminus)) [894_0362] | 1 to 100
{CH2CO}-AV[NMePhe(3-Cl)]VWN[3Pal(6-NH2)][F4aao]IIRR[Phe(3-COOH)][NMeY]C (thioether N-15; not fully specified (C-terminus)) [894_0368] | 1 to 100
{CH2CO}-AV[NMePhe(3-Cl)]VWNY[3Pal]IIRE(NH(CH2CH2O)8Me)[4Pal][NMeY]C-NH2 (thioether N-15; also: linker PEG4c) [894_0371] | 1 to 100
{CH2CO}-AV[NMePhe(3-Cl)]VWNY[F4aao]IIR[E(PEG8Me)][Phe(3-COOH)]YC-NH2 (thioether N-15; not fully specified (residue 14); also: linker PEG4c, place not given here) [894_0372] | 1 to 100
Ac-AV[NMePhe(3-Cl)]V[Trp(1-CH2CO)]NY[Phe(4-OMe)(3)]IIR[E(PEG8Me)][4Pal][NMeY]C (thioether (positions not given here); not fully specified (C-terminus, bridges)) [894_0345] | 1 to 100
Ac-AV[NMePhe(3-Cl)]V[Trp(1-CH2CO)]N[3Pal(6-NH2)][F4aao]IIRR[4Pal][NMeY]C (thioether (positions not given here); not fully specified (C-terminus, bridges)) [894_0348] | 1 to 100
Ac-AV[NMePhe(3-Cl)]V[Trp(1-CH2CO)]NY[3Pal]IIR[E(PEG8Me)]F[NMeY]C (thioether (positions not given here); not fully specified (C-terminus, bridges)) [894_0340] | 1 to 100
{CH2CO}-AV[NMePhe(3-Cl)]V[Trp(1-CH2CO)]NY[3Pal]IIRE(NH(CH2CH2O)8Me)[Phe(3-COOH)][NMeY]C-NH2 (thioether N-15; also: linker PEG4c) [894_0352] | 1 to 100
Ac-AV[NMePhe(3-Cl)]V[Trp(1-CH2CO)]NY[F4aao]IIRR[4Pal][NMeY]C (thioether (positions not given here); not fully specified (C-terminus, bridges)) [894_0343] | 1 to 100
Ac-AV[NMePhe(3-Cl)]V[Trp(1-CH2CO)]N[3Pal(6-NH2)][Phe(4-OMe)(3)]IIRR[Phe(3-COOH)][NMeY]C (thioether (positions not given here); not fully specified (C-terminus, bridges)) [894_0339] | 1 to 100
